Substrate in this data set: CNC(=O)Oc1ccc2[nH]cc(CCNC(C)=O)c2c1
Description: MTase-Glo bioluminescence assay. The class given is biochemical, Streptomyces griseofuscus. Particulars: […] SAM; optimized conditions ([…] °C, pH […] KPi stated as optimum).

Results on one protein are retold here after publication PMC8596708.

B1: PsmD (Streptomyces griseofuscus) (protein)
chain: MMQGQPHQDAGMPEPYAATADVYDRLVDYAIAEWGECPRPQMADFVEQAWAARGHRVRRVLELCCGTGLMTEQLVRRGYEVTAVDRSETMLALAKQRVGGAADFHQIELPAPLPDGADAVVCTAAAFNYQASARSLGETLRAVATVLPAGATFVFDIETAALLKGHWGNRVWAADEGDLAFIWDFTSEPDTTYCDVHYTQFTRHEAGADAYTGVREVHRLYAFDHDTVRAQARAAGFAQAEVFDNYTERPATDTTRYETWVLTRDER
With B1, the Km is 11.3 µM.
